From patent US9962427B2, “Treatment of right ventricular dysfunction due to pressure overload” (OTTAWA HOSPITAL RESEARCH INSTITUTE, priority 2016, dated 2018)

B1: hCT1: Recombinant human CT1 protein; 201 amino acid sequence, GenBank Accession Nos AAD12173 and AAA85229 (human) (protein, UniProt Q16619 1-201, looked up)
Cardiotrophin-1: MSRREGSLEDPQTDSSVSLLPHLEAKIRQTHSLAHLLTKYAEQLLQEYVQLQGDPFGLPSFSPPRLPVAGLSAPAPSHAGLPVHERLRLDAAALAALPPLLDAVCRRQAELNPRAPRLLRRLEDAARQARALGAAVEALLAALGAANRGPRAEPPAATASAASATGVFPAKVLGLRVCGLYREWLSRTEGDLGQLLPGGSA

What was measured:
Format in all cases: cell-based
[1] = test system: Mef2; assay: Mef2 luciferase reporter in primary neonatal cardiomyocytes; conditions: hCT1 0.5 nM; for Mef2 activation after 24 hrs: PE 100 μM, PAC-1 25 μM
Experimental: (§1) FIGS. 6A, 6B, and 6C. Stimulation with hCT1 causes sustained activation of NF-κB and Stat3 with limited activation of Mef2, as well as limited Nfat activation; the latter two indices are distinct expression patterns from pathologic hypertrophic stimulation. FIG. 6A Primary neonatal cardiomyocytes were transfected with luciferase reporter plasmids (NF-κB or Mef2), as indicators of hypertrophic activity. Luciferase activity was measured after treatments for 24 hrs with: hCT1 (0.5 nM), PE (100 μM), or procaspase 3 activating compound 1, PAC-1 (25 μM) (left). Treatments at early timepoints (30 min, 1 hr, and 3 hr) were also conducted for hCT1 (right). FIG. 6B Primary neonatal cardiomyocytes were transfected with a luciferase reporter plasmid for Stat3. Luciferase activity was measured after treatments for 24 hrs with: hCT1 (0.5 nM), PE (100 μM), or procaspase 3 activating compound 1, PAC-1 (25 μM) (left) and at earlier time points (right). FIG. 6C Primary neonatal cardiomyocytes were infected with a luciferase-based Nfat reporter Adenovirus (Nfat-AdV). Luciferase activity was measured after treatments for 24 hrs with: hCT1 (0.5 nM), PE (100 μM), or procaspase 3 activating compound 1, PAC-1 (25 μM) (left) and at earlier time points (right)
The signaling pathways that CT-1 engages in mediating physiologic adaptive compensatory remodeling were examined. The applicants predicted that cardiomyocyte adaptive remodeling mediated by CT-1 results (in part) from the induction of a specific transcriptional program, which is distinct from that of pathologic hypertrophic response. To address this hypothesis, the applicants tested the activity of two well-known transcription factor families that have been linked to both physiologic and pathologic cardiomyocyte growth, the Mef2 (Kolodziejczyk et al. 1999 Curr Biol. 9, 1203-1206; Kim et al. 2008, J Clin Invest. 118, 124-132.) and the NF-κB family (Gordon et al. 2011, Circ Res. 108, 1122-1132). Primary neonatal cardiomyocytes were transfected with luciferase reporter plasmids (NF-κB and Mef2) to be used as a read out of transcriptional activity. Luciferase activity was determined after treatments for 24 hrs with: hCT1 (0.5 nM), PE (100 μM), or procaspase 3 activating compound 1, PAC-1 (25 μM). […] This pattern of transcription factor activation was distinct from that induced by PE and by the caspase 3 specific activating compound PAC-1.

[2] = test system: NFAT; assay: NFAT luciferase reporter adenovirus (Nfat-AdV) in cardiomyocytes
Experimental: as §1
Applicants tested this supposition by infecting cardiomyocytes with an NFAT luciferase reporter linked to an Adenovirus (AdV) backbone (FIG. 6C). Cardiomyocytes were infected at a […] (MOI) of 20 with Nfat-AdV for 24 hours prior to stimulation with hCT1 (0.5 nM), PE (100 μM), or procaspase 3 activating compound 1, PAC-1 (25 μM). As an initial positive control, co-infection of NFAT-AdV with activated Calcineurin-AdV (a phosphatase and potent activator of NFAT signalling) caused a significant increase in NFAT activity (n=4; *, P<0.05). […] Although the exact mechanism of inhibition is unknown, Applicant has shown CT-1 engaging a PI3K signalling pathway and it would be reasonable to postulate that phosphorylation of NFAT by CT-1/PI3K signalling would limit NFAT activity.

[3] = test system: Vascular Endothelial Growth Factor—VEGF; assay: VEGF expression by immunofluorescence in primary cardiomyocytes; conditions: 24 hours; hCT1 0.5 nM, PE 100 μM, PAC-1 25 μM
Experimental: FIGS. 8A and 8B. […] FIG. 8B Microarray analysis of primary cardiomyocytes stimulated with hCT1 (0.5 nM) for 24 hours.
Applicant explored the role of CT-1 as a pro-angiogenic factor in the adaptive hypertrophic response. Physiologic cardiac adaptive compensation is associated with an increase in capillary density, whereas pathologic response is characterized by a decline or no change at all. Importantly, the compensatory vascular growth/angiogenesis that occurs during physiologic adaptive compensation is permissive for the increased workload that accompanies physiologic adaptive compensation. Despite this adaptation, little information exists regarding the mechanisms that match the demand for angiogenesis to the beneficial form of myocardial growth. The rapid in vitro and in vivo adaptive compensation in response to CT-1 supports a hypothesis that the cardiomyocyte itself may act in a paracrine fashion, to signal and promote angiogenesis. To address this conjecture, Applicant examined whether CT-1 treated primary cardiomyocytes produced vascular endothelial growth factor (VEGF), an angiogenic factor known to be produced and secreted by cardiomyocytes. Primary cardiomyocytes were incubated with control serum-free media (Ctrl, SF media) or stimulated with hCT1 (0.5 nM), PE (100 μM), or PAC-1 (25 μM) for 24 hours. Immunofluorescence was used to detect α-actinin, Vascular Endothelial Growth Factor—VEGF, and nuclei. […] Based on these observations Applicant next conducted a comparative gene expression analysis of control (non-stimulated) versus CT-1 treated (0.5 nM, 24 hours) primary cardiomyocytes, using the Affymetrix Rat gene 2.0ST array.

Molecule	Mef2 activation after 24 hrs [1]	NFAT activity compared to baseline levels ([2]; as early as 3 hours, up to 24 hours, PE 100 μM, PAC-1 25 μM)	VEGF expression (immunofluorescence) [3]	Mef2 luciferase activity at 1 hr and 3 hr [1]	NFAT activity compared to baseline levels, CT-1 alone ([2]; 30 minutes, 1 hour, and 3 hours)	NFAT activity after CT-1 pre-treatment compared to PE or PAC-1 alone ([2]; 3 hours and 24 hours)
CNC[C@H](O)c1cccc(O)c1 [PE, Phenylephrine]	significant activation of Mef2	significant increase of NFAT activity	less VEGF expression	–	–	–
B1	only NF-κB transcriptional activity was sustained	–	rapid increase in the expression of VEGF	significant activation	slight, yet significant, decrease in NFAT activity	significantly decreased NFAT activity
